Experimental data as given in patent publication US20030235558A1.

Target: ^125I-labeled multiubiquitin chains
Experiment: GST fusion on glutathione agarose beads, ^125I-labeled multiubiquitin chains, gamma-counting

Substance | Multiubiquitin Chain Bound (%) | Multiubiquitin Chain Bound cpm
GST fused p62 ubiquitin binding region (GST.p62C259) (from UniProt O08623 363-439) | 100% | 5210 cpm
GST fused p62 ubiquitin binding region mutant L394/L395 → A/A (from UniProt O08623 363-439) | 17% | 877 cpm
